Data as given in the RNAGym collection of RNA variant scans (doi:10.1073/pnas.2313332121).
This sample holds only a part of the variants without activity.

B1: TPR 5TU (parent)
chain: GGAUCUUCUCGAUCUAACAAAAAAGACAAAUCUGCCACAAAGCUUGAGAGCAUCUUCGGAUGCAGAGGCGGCAGCCUUCGGUGGCGCGAUAGCGCCAACGUUCUCAACUAUGACACGCAAAACGCGUGCUCCGUUGAAUGGAGUUUAUCAUG

Variants of: B1
Test: polymerase ribozyme fitness, log enrichment relative to wild type (log ratio); higher = more active; in vitro selection for triplet polymerase activity
Outline: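 Only genotypes with ≥10 input reads and ≥1 read per output were kept after Illumina sequencing of input and output libraries. These libraries were PCR-built, transcribed mutants of each subunit of a heterodimeric triplet polymerase ribozyme, each put through one triplicate in vitro selection round with frozen incubation at −7 °C, gel excision of extended constructs, streptavidin-bead capture and RT-PCR. Fitness is a logarithmic ratio of genotype enrichment to wild-type enrichment, from inverse-variance-weighted replicate averages, with the logarithm in base 2.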

Variant | polymerase ribozyme fitness (log ratio)
U55C C85A A119G A137U | ≤ -4.2
A26U G92U | -2.66
U13G A52G G59C C95A C118U | -2.5
A20C C57G C85A C118U G143C | -3.96
G46C G48A C76G U78G G83A G143C | -4.2
A21C G34U U55A C132G U135A | ≤ -4.2
U45A G74A C105U | ≤ -4.2
A49C G81U C93G | ≤ -4.2
C32U U77A A89U C93U A106U | ≤ -4.2
G11A A12U A52G U53C A91U | -4.08
C18A C36A G58A A64U C85A | ≤ -4.2
U53A G59C C87U C96A A113G C125U | ≤ -4.2
G42C U111A | ≤ -4.2
A26U U55G U56A C87U C96U | -3.35
C8G A16U C36G | ≤ -4.2
A24G A28U U55A G140A | ≤ -4.2
A30G C38U C54G C72G C75G C96G A147U | ≤ -4.2
U53A G92U | -1.74
A26U A29U G62U C99U C125U U134A | -4.08
G136C U145A C149G | ≤ -4.2
A22U G83C G86U C108A C129U | ≤ -4.2
A3G C54A C95U | -2.06
A20U A26U A40C U44A C105G C114U C116A | ≤ -4.2
A16G C38A A147C | -2.97

Variant | polymerase ribozyme fitness (log ratio)
A40C G62U A97G C116G A122U | -1.6
A40U G92U A119G | -0.619
U56C C87U A110G | -3.04
A30G G46A G70C U78G G86C A142C U146A | ≤ -4.2
C8U C63U C72U C123U G126U | ≤ -4.2
C14G A19G C43U G86A U104G C108G A122C | ≤ -4.2
G84U G117U C123A | -1.62
U7C C85G | -3.47
A41C G92A | -3.32
C93U C96U | -3.28
C43G A64C A73C C87A C105G | ≤ -4.2
U55A A119G | -1.38
G62A C96A | -2.92
A30U U45G G50A A66G A113G G152A | ≤ -4.2
G83C C87G C114U A120U A138G | ≤ -4.2
G50A C75G U90G U111C C123G U139A U144C | ≤ -4.2
A115U A142C | -3.39
C18G G141C | -1.51
A47U A52G U53G U56A U145G | -3.64
G48A G62A G68C C105U G126A G136C G141U U145G | ≤ -4.2
C8A C87U | -3.89
C10G C116A | -2.96
C10A C32G C38U C54U A142U | -4.12
A12C G58A A66C G88U A110U | ≤ -4.2

Variant | polymerase ribozyme fitness (log ratio)
G83C C95U | -1.81
C14U A41U G46A A52U C63G C93U C105G | ≤ -4.2
A12G U33A A64C G92A G124U | -4
G58A A98G | 0.621
C32U U56A G74A | 0.713
C63G C75U C93U A120U | -0.964
U4A U61A G94A | -1.99
U13A A22C G50A G84A A121U | -2.93
G81U G84C C118G | -3.16
U6C A49U C63G | -2.48
C36G U45G C54U A89U G94U C125G G126A | ≤ -4.2
C10G U55A C57A U77G C87G | ≤ -4.2
G84A C93G C125A G133U | ≤ -4.2
A49C U148A | ≤ -4.2
G80A G94C C125A G143A | ≤ -4.2
U15A U111C G112U | -3.91
A19C C51G U55G C93U G126C | -2.57
C36U C96G G117U G152A | -3.09
C96G U111C | -3.62
C96U A137C | -3.39
A17G A60G G84U C118A U146G | -2.3
A49G C85A | -2.52
C8A U33C U44A A52U C85U U104A A106G C125G G152U | ≤ -4.2
U15G C38U | -0.133

Variant | polymerase ribozyme fitness (log ratio)
C57U C116U U139C | ≤ -4.2
A30G A37U G50A G83C | ≤ -4.2
G84A A147G | -2.67
G42C G46A C75G A91G U102G G133U G152A | ≤ -4.2
C118A U139G | -0.933
U4A C8A C43A A64U C93A U146C | ≤ -4.2
C57G A97U | -0.704
A19C A49C A60G U101G G141A | -2.8
A16C A19C G84C C96U G126C | -3.42
U55A G74A | -3.26
G68U C79G G84A C105U A147U | ≤ -4.2
C79A G141C | -3.95
G92C C114U G141U | ≤ -4.2
G58A G84A A142U G152A | -2.68
G65A G124U | -1.24
C35U G65C C76U C96A | ≤ -4.2
G50A U56A C57A C114G G133A | -3.53
C5G A16C G59U C96A | -2.66
C38U G81U C108A U139G | ≤ -4.2
A21G A89G C99U | -1.34
A20U G84A G124A A147G | -2.53
C95U C99G G117A A120C A122G | -1.97
C75U A89G | -0.933
C57U C85U | 0.073

Variant | polymerase ribozyme fitness (log ratio)
A21C U31A A49C U61A C93U G133C | ≤ -4.2
A16U A17C A24G A49G C76A C87A C99G | ≤ -4.2
A47C C76A C87G C96U A115G | ≤ -4.2
G88A A97G U111G | ≤ -4.2
U55G G59U G67C U77A C96G A119C U139A U148G | ≤ -4.2
A23U C79U U101G G141C | ≤ -4.2
C57A G92C C123A | -0.277
A22C A40C G94A A119G | 0.789
A16G C27G A30U U61A A97U G128U | ≤ -4.2
G81C G88A A107C C125A C131U | ≤ -4.2
C57U G58A U104G C105U | -3.63
A29C A52G U61A A122U G141U | ≤ -4.2
C10G U82C G94U U102C A107C A138U | ≤ -4.2
G46A G88U C132U | ≤ -4.2
A20U G84U A120U | -2.73
C79U G80C C85U C93U | ≤ -4.2
A24U C93U A98G C132U A142G | -4.17
A21C A24G A52G G67A C85A G141C | ≤ -4.2
C14G G34A C85A | ≤ -4.2
G34C C85G G141U | -4.04
G50C C51U C54G C87U | ≤ -4.2
C14U C85A G141C | -2.63
G59C C95U A106G C116A | 0.288
A60G G83A | -1.4

Variant | polymerase ribozyme fitness (log ratio)
A3U C5U C87U C96G C131A | ≤ -4.2
U13G A19U A22C G46C G81C C95U G140C | ≤ -4.2
U77C G143U | -4.09
A91U G140C | ≤ -4.2
A41U C85U A122G | -1.39
A29U G124U | ≤ -4.2
U13A A21U U55C G62C U82A G100C C105G G112U C131U | ≤ -4.2
A28U A41C U61A C99A A122C | ≤ -4.2
A39C G83U A138C | -4.18
G81C A137U U139G U144A | -3.35
A3U C27U A49C G88C C96A C125G A142C | ≤ -4.2
C14G C54U A64G A66C U82G A97G G140U | ≤ -4.2
A47C C108U U146C | -3.2
C54A G86U C105U | -2.87
A22C A28U G88U | ≤ -4.2
U55A G58C G68U G81A A91U C96A | ≤ -4.2
C10U A12U A121C | -4.08
A49G C63U C85U | -0.955
A142G | -0.833
C5A G58C A60G G92A A121U | -1.56
U53A C87U A150U | -0.451
C5U A28U C51G C75G C95U G141U | -4.02
G74A G84C C95U A137C | ≤ -4.2
U44A C85A C96G | ≤ -4.2

Variant | polymerase ribozyme fitness (log ratio)
A17C C38A G94A | 0.661
C18U A29U A91U A107U | ≤ -4.2
U44A C103G A115U | ≤ -4.2
U56A G83A C87U | -3.83
A3U G59A A120U | -0.556
G136A G141U | 1.57
U53A C85A A106G U144G | -2.88
A73G A115G G141A | -2.44
C85U G94U | 0.0431
A49G C93A | -3.6
C85A A115G | -2.38
U139C | -2.57
C51G U90G | ≤ -4.2
U56A C75G G94A C105U G133U | -4.17
C79G G81U C95U A107U C108U | ≤ -4.2
A30C G83C U101G A121U | ≤ -4.2
A30U A39U G62A G70A A89C C129A A142C | ≤ -4.2
C27U A47G U77A C85U U146C | ≤ -4.2
C75G | -3.24
C75A | -3.85
A23U C54G U61A C72A G86A G141A | ≤ -4.2
A3U C5U C35G A37G G86U A89G U104C C125G C131G | ≤ -4.2
C14G A89U | -2.66
